Results as given in publication doi:10.1101/2024.09.11.612445 (bioRxiv, 2024).

T1: recombinant CSTF3 21-549 (human, UniProt Q12996 21-549)
T1 sequence (looked up): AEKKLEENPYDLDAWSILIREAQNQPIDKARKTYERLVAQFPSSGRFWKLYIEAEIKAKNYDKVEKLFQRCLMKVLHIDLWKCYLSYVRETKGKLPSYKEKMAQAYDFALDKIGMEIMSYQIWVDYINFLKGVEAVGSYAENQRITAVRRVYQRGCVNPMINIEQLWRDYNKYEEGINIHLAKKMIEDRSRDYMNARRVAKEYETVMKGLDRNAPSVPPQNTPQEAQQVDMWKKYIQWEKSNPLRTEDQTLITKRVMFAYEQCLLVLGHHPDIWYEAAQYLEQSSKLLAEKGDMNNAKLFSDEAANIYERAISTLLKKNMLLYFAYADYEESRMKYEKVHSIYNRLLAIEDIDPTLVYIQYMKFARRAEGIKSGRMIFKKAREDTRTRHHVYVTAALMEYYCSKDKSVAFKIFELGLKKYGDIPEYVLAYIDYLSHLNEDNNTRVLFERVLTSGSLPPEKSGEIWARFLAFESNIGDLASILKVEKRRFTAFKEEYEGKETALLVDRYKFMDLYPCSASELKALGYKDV


Tests used:
[1] = target: T1, recombinant CSTF3 21-549; assay: pull-down
[2] = target: T1, recombinant CSTF3 21-549; assay: ITC

binding result [1]	binding result [2]	Binder
binds	–	GST-WDR33 431-485 wild-type (domain or fragment, human, UniProt Q9C0J8 431-485, looked up) DDLEPNSLAVIPGMGIPEQLKLAMEQEQMGKDESNEIEMTIPGLDWGMEEVMQKD
–	binds	SPTVDDEEEMLYGDS (peptide, UniProt Q10570 737-751, looked up) [CPSF1 737-751 wild-type peptide]
